3 substances from paper PMC5574551 can be followed below.

Broadly, the Kd is the concentration at which binding is half-saturated. Higher therefore signals lower affinity. For orientation: stoichiometry N means a count of units in the complex or per binding partner.

Assay [1] addresses taxol-stabilized microtubules (porcine brain tubulin) (porcine) (UniProt P02550). The experiment in a line: single molecule observation (TIRF microscopy); 1 nM GFP-labeled dynactin isoform, mutant or fragment alone on taxol-stabilized microtubules held on glass; SM buffer, 1 mM ATP, 25°C; total residence time in a window of 10 s and 10 μm of microtubule.
The target is the same in assay [2]. In words: single molecule observation (TIRF microscopy); as a2, 1 nM Alexa 647-labeled dynein with 2 nM 1A isoform, no BICD2.
Assay [3] has the same target. In words: single molecule observation (TIRF microscopy); as a2, 1 nM Alexa 647-labeled dynein with 2 nM 1B isoform and 20 nM BICD2 (DDB 1B).
For assay [4] the target is unchanged. The experiment in a line: single molecule observation (TIRF microscopy); as a2, 1 nM Alexa 647-labeled dynein with 2 nM 1B isoform, no BICD2.
For assay [5] the target is unchanged. In words: single molecule observation (TIRF microscopy); as a2, 1 nM Alexa 647-labeled dynein with 2 nM 1BΔCC1 mutant.
Assay [6] has the same target. In words: single molecule observation (TIRF microscopy); as a2, 1 nM Alexa 647-labeled dynein with 2 nM p135 isoform.
For assay [7] the target is unchanged. In words: single molecule observation (TIRF microscopy); as a2, 1 nM Alexa 647-labeled dynein with 20 nM BICD2 (full length), no dynactin.
The target is the same in assay [8]. In words: single molecule observation (TIRF microscopy); as a2, 1 nM Alexa 647-labeled dynein with 2 nM 1A isoform and 20 nM BICD2 (DDB 1A).
For assay [9], the target named is dynactin complex containing the DCTN1B (1B) isoform (human (cDNA from HEK293 cells) | human (endogenous in HEK293)) (UniProt Q13561). The experiment in a line: pull-down; TALON Dynabeads pull-down of purified proteins; dynein and dynactin mixed in 10 mM Pipes-NaOH pH 7.0, 75 mM NaCl, 45 mM imidazole, 0.01% Tween 20, 10 min at 25°C; bound and unbound fractions on SDS-PAGE, dynein heavy chain band quantified by densitometry.

Assay [10] has as its target taxol-stabilized microtubules (porcine brain tubulin) (porcine) (UniProt P02550). The experiment in a line: single molecule observation (TIRF microscopy); 1 nM Alexa 647-labeled dynein alone on taxol-stabilized microtubules held on glass by anti-β tubulin antibody; SM buffer (12 mM Pipes-KOH pH 6.8, 25 mM KAce, 1 mM ATP, 2 mM DTT), 25°C; total residence time in a window of 10 s and 10 μm of microtubule.

In the case of “dynactin complex containing the 1BΔCC1 mutant of DCTN1 (from UniProt P61163 1-376)”, the total residence time on microtubules in assay [1] was found to be 50 s.
For the substance “dynactin complex containing the DCTN1A (1A) isoform (from UniProt Q14203-1 1-1278; Q13561 1-401; P61163 1-376)”, in assay [1], the fraction not dissociated from microtubules during the observation of 30 s worked out at 72% and the total residence time on microtubules stood at 60.1 s.
Consider “cytoplasmic dynein (recombinant dynein complex), Q14204 1-4646”, for which, in assay [2], the fraction not dissociated from microtubules during the observation of 30 s (with 1A isoform) was found to be 79% and the total residence time on microtubules (with 1A isoform) is 53.2 s. For the same substance, in [3], the total residence time on microtubules (with 1B isoform and BICD2) amounted to 19.2 s. In assay [4], this substance gave a duration on microtubules, τ (with 1B isoform) of 1.2 s and a total residence time on microtubules (with 1B isoform) of 4.7 s. Further, the total residence time on microtubules (with 1BΔCC1 mutant) in assay [5] was determined as 54 s. This substance also displayed a total residence time on microtubules (with p135 isoform) in assay [6] of 23.8 s. Moreover, the total residence time on microtubules (with BICD2) in [7] amounted to 51.8 s. For the same substance, the total residence time on microtubules (with 1A isoform and BICD2) in assay [8] was 49.1 s. In addition, in [9], the Kd worked out at 2.3 nM and the stoichiometry N came to 1. This substance had a total residence time on microtubules in assay [10] of 64.9 s.
